The values below come from patent publication US20050154189A1 (MAXYGEN, published 2005).

To fix the notation:
B1: Round 2 CD28BP-4 (ligand)
chain: ITPKSVTKRVKETVMLSCDYNTSTEELTSLRIYWQKDSKMVLAILPGKVQVWPEYKNRTITDMNDNPRIVILALRLSDSGTYTCVIQKPVLKGAYKLEHLASVRLMIRADFPVPTINDLGNPSPNIRRLICSTSGGFPRPHLCWLENGEELNATNTTVSQDPGTELYMISSELDFNVTNNHSIVCLIKYGELSVSQIFPWSKPKQEPPIDQLPFWVIIPVSGALVLTAVVLYCLACRHVARWKRTRRNEETVGTERLSPIYLGSAQSSG
B2: Round 2 CD28D8-9 (ligand)
chain: ITPKSVTKRVKETVMLSCDYSTSTEELTSLRIYWQKDSKMVLAILPGKVQVWPEYKNRTITDMNDNPRIVILALRLSDSGTYTCVIQKPVLKGAYKLEHLTSVRLMIRADFPVPTINDLGNPSPNIRRLICSTSGGFPRPHLYWLENGEELNATNTTVSQDPGTELYMISSELDFNVTNNHSIVCLIKYGELSVSQIFPWSKPKQEPPIDQLPFWVIIPVSGALVLTAVVLYCLACRHVARWKRTRRNEETVGTERLSPIYLGSAQSSG
B3: Round 2 CD28BP-5 (ligand)
chain: ITPKSVTKRVKETVMLSCDYSTSTEELTSLRIYWQKDSKMVLAILPGKVQVWPEYKNRTITDMNDNPRIVILALRLSDKGTYTCVVQKPVLKGAYKLEHLTSVRLMIRADFPVPTINDLGNPSPNIRRLICSTSGGFPRPHLYWLENGEELNATNTTVSQDPGTELYMISSELDFNVTNNHSIVCLIKYGELSVSQIFPWSKPKQEPPIDQLPFWVIIPVSGALVLTAVVLYCLACRHVARWKRTRRNEETVGTERLSPIYLGSAQSSG
B4: Round 2 CD28F3-6 (ligand)
chain: ITPKSVTKRVKETVMLSCDYSTSTEELTSLRIYWQKDSKMVLAILPGKVQVWPEYKNRTITDMNDNPRIVILALRLSDSGTYTCVIQKPDLKGAYKLEHLTSVRLMIRADFPVPTINDLGNPSPNIRRLICSTSGGFPRPHLYWLENGEELNATNTTLSQDPETKLYMISSELDFNVTNNHSIVCLIKYGELSVSQIFPWSKPKQEPPIDQLPFWVIIPVSGALVLTAVVLYCLACRHVARWKRTRRNEETVGTERLSPIYLGSAQSSG
B5: Round 2 CD28C11-5 (ligand)
chain: ITPKSVTKRVKETVMLSCDYNTSTEELTSLRIYWQKDSKMVLAILPGKVQVWPEYKNRTITDMNDNPRIVILALRLSDSGTYTCVIQKPVLKGAYKLEHLTSVRLMIRADFPVPTINDLGNPSPNIRRLICSTSGGFPRPHLYWLENGEELNATNTTVSQDPGTELYMISSELDFNVTNNHSIACLIKYGELSVSQIFPWSKPKQEPPIDQLPFWVIIPVSGALVLTAVVLYCLACRHVARWKRTRRNEETVGTERLSPIYLGSAQSSG
B6: Round 2 CD28D2-9 (ligand)
chain: ITPKSVTKRVKETVMLSCDYNTSTEELTSLRIYWQKDSKMVLAILPGKVQVWPEYKNRTITDMNDNPRIVILALRLSDSGTYTCVIQKPVLKGAYKLEHLTSVRLMIRADFPVPTINDLGNPSPNIRRLICSTSGGFPRPHLYWLENGEELNATNTTLSQDPETELYMISSELDFNVTNNHSIVCLIKYGELSVSQIFPWSKPKQEPPIDQLPFWVIIPVSGALVLTAVVLYCLACRHVARWKRTRRNEETVGTERLSPIYLGSAQSSG
B7: Round 2 CD28BP-13 (ligand)
chain: ITPKSVTKRVKETVMLSCDYSTSTEELTSLRIYWQKDSKMVLAILPGKVQVWPEYKNRTITDMNDNPRIVILALRLSDSGTYTCVIQKPVLKGAYKLEHLASVRLMIRADFPVPTINDLGNPSPNIRRLICSTSGGFPEPRLAWMEDGEELNAVNTTVDQDLDTELYSVSSELDFNVTNNHSIVCLIKYGELSVSQIFPWSKPKQEPPIDQLPFWVIIPVSGALVLTAVVLYCLACRHVARWKRTRRNEETVGTERLSPIYLGSAQSSG
B8: Round 2 CD28BP-16 (ligand)
chain: ITPKSVTKRVKETVMLSCDYNTSTEELTSLRIYWQKDSKMVLAILPGKVQVWPEYKNRTITDMNDNPRIVILALRLSDSGTYTCVIQKPVLKGAYKLEHLTSVRLMIRADFPVPTINDLGNPSPNIRRLICSTSGGFPRPHLYWLENGEELNATNTTVSQDPGTELYMISSELDFNVTNNHSIVCLIKYGELSVSQIFPWSKPKQEPPIDQLPFWVIIPVSGALVLAAVVLYCLACRHVARWKRTRRNEETVGTERLSPIYLGSAQSSG
B9: Round 2 CD28E10-6 (ligand)
chain: ITPKSVTKRVKETVMLSCDYNTSTEELTSLRIYWQKDSKMVLAILPGKVQVWPEYKNRTITDMNDNPRIVILALRLSDSGTYTCVIQKPVLKGAYKLEHLASVRLMIRADFPVPTINDLGNPSPNIRRLICSTSGGFPRPHLYWLENGEELNATNTTLSQDPETELYMISSELDFNVTNNHSIVCLIKYGELSVSQIFPWSKPKQEPPIDQLPFWVIIPVSGALVLTAVVLYCLACRHVARWKRTRRNEETVGTERLSPIYLGSAQSSG
B10: Round 2 CD28E2-4 (ligand)
chain: ITPKSVTKRVKETVMLSCDYSTSTEELTSLRIYWQKDSKMVLAILPGKVQVWPEYKNRTITDMNDNPRIVILALRLSDKGTYTCVIQKPVLKGAYKLEHLASVRLMIRADFPVPTINDLGNPSPNIRRLICSTSGGFPRPHLYWLENGEELNATNTTVSQDPGTELYMISSELDFNVTNNHSIVCLIKYGELSVSQIFPWSKPKQEPPIDQLPFWVIIPVSGALVLTAVVLYCLACRHVARWKRTRRNEETVGTERLSPIYLGSAQSSG
B11: Round 2 CD28E5-2 (ligand)
chain: ITPKSVTKRVKETVMLSCDYNTSTEELTSLRIYWQKDSKMVLAILPGKVQVWPEYKNRTITDMNDNPRIVILALRLSDSGTYTCVIQKPDLKGAYKLEHLASVRLMIRADFPVPTINDLGNPSPNIRRLICSTSGGFPRPHLYWLENGEELNATNTTLSQDPETKLYMISSELDFNVTNNRSIVCLIKYGELSVSQIFPWSKPKQEPPIDQLPFWVIIPVSGALVLTAVVLYCLACRHVARWKRTRRNEETVGTERLSPIYLGSAQSSG
B12: Round 2 CD28F7-2 (ligand)
chain: ITPKSVTKRVKETVMLSCDYSTSTEELTSLRIYWQKDSKMVLAILPGKVQVWPEYKNRTITDMNDNPRIVILALRLSDSGTYTCVIQKPVLKGAYKLEHLASVRLMIRADFPVPTINDLGNPSPNIRRLICSTSGGFPEPRLAWMEDGEELNAVNTTVDQDLDTELYSVSSELDFNVTNNHSIVCLIKYGELSVSQIFPWSKPKQEPPIDQLPFWVIIPVSGALVLTAVVLYCLACRHVARWKRTRRNEETVGTERLSPIYLGSAQSSG
B13: Round 2 CD28C8-6 (ligand)
chain: ITPKSVTKRVKETVMLSCDYNTSTEELTSLRIYWQKDSKMVLAILPGKVQVWPEYKNRTITDMNDNPRIVILALRLSDSGTYTCVIQKPVLKGAYKLEHLASVRLMIRADFPVPTINDLGNPSPNIRRLICSTSGGFPRPHLYWLENGEELNATNTTVSQDPGTELYMISSELGFNVTNNHSIVCLIKYGELSVSQIFPWSKPKQEPPIDQLPFWVIIPVSGALVLTAVVLYCLACRHVARWKRTRRNEETVGTERLSPIYLGSAQSSG
B14: Round 2 CD28E9-6 (ligand)
chain: ITPKSVTKRVKETVMLSCDYNTSTEELTSLRIYWQKDSKMVLAILPGKVQVWPEYKNRTITDMNDNPRIVILALRLSDKGTYTCVIQKPDLKGAYKLEHLASVRLMIRADFPVPTINDLGNPSPNIRRLICSTSGGFPRPHLYWLENGEELNATNTTVSQDPGTELYMISSELDFNVTNNHSIVCLIKYGELSVSQIFPWSKPKQEPPIDQLPFWVIIPVSGALVLTAVVLYCLACRHVARWKRTRRNEETVGTERLSPIYLGSAQSSG
B15: Round 2 CD28H11-3 (ligand)
chain: ITPKSVTKRVKETVMLSCDYNTSTEELTSLRIYWQKDSKMVLAILPGKVQVWPEYKNRTITDMNDNPRIVILALRLSDSGTYTCVIQKPVLKGAYKLEHLASVRLMIRADFPVPTINDLGNPSPNIRRLICSTSGGFPRPHLYWLENGEELNATNTTLSQDPETKLYMISSELDFNVTNNHSIVCLIKYGELSVSQIFPWSKPKQEPPIDQLPFWVIIPVSGALVLTAAVLYCLACRHVARWKRTRRNEETVGTERLSPIYLGSAQSSG
B16: Round 2 CD28C6-1 (ligand)
chain: ITPKSVTKRVKETVMLSCDYSTSTEELTSLRIYWQKDSKMVLAILPGKVQVWPEYKNRTITDMNDNPRIVILALRLSDSGTYTCVIQKPVLKGAYKLEHLASVRLMIRADFPVPTINDLGNPSPNIRRLICSTSGGFPRPHLYWLENGEELNATNTTVSQDPGTELYMISSELDFNVTNNHSIVCLIKYGELSVSQIFPWSKPKQEPPIDQLPFWVIIPVSGALVLTAVVLYCLACRHGARWKRTRRNEETVGTERLSPIYLGSAQSSG
B17: Round 2 CD28G2-8 (ligand)
chain: ITPKSVTKRVKETVMLSCDYNTSTEELTSLRIYWQKDSKMVLAILPGKVQVWPEYKNRTITDMNDNPRIVILALRLSDSGTYTCVIQKPVLKGAYKLEHLASVRLMIRADFPVPSINDLGNPSPNIRRLICSTSGGFPRPHLYWLENGEELNATNTTVSQDPGTELYMISSELDFNVTNNHSIVCLIKYGELSVSQIFPWSKPKQEPPIDQLPFWVIIPVSGALVLTAVVLYCLACRHVARWKRTRRNEETVGTERLSPIYLGSAQSSG
B18: Round 2 CD28F8-4 (ligand)
chain: ITPKSVTKRVKETVMLSCDYSTSTEELTSLRIYWQKDSKMVLAILPGKVQVWPEYKNRTITDMNDNPRIVILALRLSDSGTYTCVIQKPVLKGAYKLEHLASVRLMIRADFPVPTINDLGNPSPNIRRLICSTSGGFPRPHLYWLENGEELNATNTTLSQDPETKLYMISSELDFNVTNNHSIVCLIKYGELSVSQIFPWSKPKQEPPIDQLPFWVIIPVSGALVLTAVVLYCLACRHVARWKRTRRNEETVGTERLSPIYLGSAQSSG

The target in this experiment is T1, Soluble CD28-Ig (human, UniProt P10747 19-152, biotin-conjugated (NHS-biotin) in the labelled-ligand FACS assays).
T1 construct: extracellular domain; Bought from R&D Systems; also called sCD28-Ig; CD28-Ig Fc; not shown: Fc portion of human IgG1
Put plainly: two-colour FACS profile on transfected cells; score of preference for CD28-Ig over CTLA-4-Ig vs WT hB7-1.
For B1, the “Binding Score” value stood at 2.

Consider B2, for which the “Binding Score” value stood at 1.

For the molecule B3, the “Binding Score” value was 2.

As for B4, the “Binding Score” value amounted to 0.

Turning to B5, the “Binding Score” value was 2.

With B6, the “Binding Score” value is 1.

As to B7, the “Binding Score” value turned out to be 2.

For the molecule B8, the “Binding Score” value was determined as 2.

Take B9: the “Binding Score” value was found to be 1.

For the molecule B10, the “Binding Score” value came to 1.

Take B11: the “Binding Score” value stood at 0.

Consider B12, for which the “Binding Score” value is 2.

Take B13: the “Binding Score” value was 2.

Turning to B14, the “Binding Score” value was 0.

For the molecule B15, the “Binding Score” value was 1.

As for B16, the “Binding Score” value was found to be 1.

As to B17, the “Binding Score” value turned out to be 1.

Turning to B18, the “Binding Score” value amounted to 1.
